Measurements: patent publication US9889183B2, “PKC activators and anticoagulant in regimen for treating stroke” (BLANCHETTE ROCKEFELLER NEUROSCIENCES INSTITUTE, priority 2010, dated 2018)

System: ischemic stroke (middle cerebral artery occlusion) in rats
Experiment: Focal ischemia (MCAO) model of stroke
Type: in vivo, rat
Details: rTPA 6 hours after the stroke, without subsequent bryostatin; rats
Protocol: A transient animal model of focal ischemia was used for these experiments. The middle cerebral artery (MCA) was surgically dissected and occluded in anesthetized rats by ligature, followed by reperfusion after a defined period (about 2 hours). Animal models transient ischemia via occlusion of the MCA (MCAO) are well-known and described in, e.g., Sicard and Fisher, Exp. & Transl. Stroke Med. (2009), vol. 1, pp. 1-7.

B1: rTPA: recombinant tissue plasminogen activator, thrombolytic serine protease (protein, UniProt P00750 36-562, looked up)
Tissue-type plasminogen …: SYQVICRDEKTQMIYQQHQSWLRPVLRSNRVEYCWCNSGRAQCHSVPVKSCSEPRCFNGGTCQQALYFSDFVCQCPEGFAGKCCEIDTRATCYEDQGISYRGTWSTAESGAECTNWNSSALAQKPYSGRRPDAIRLGLGNHNYCRNPDRDSKPWCYVFKAGKYSSEFCSTPACSEGNSDCYFGNGSAYRGTHSLTESGASCLPWNSMILIGKVYTAQNPSAQALGLGKHNYCRNPDGDAKPWCHVLKNRRLTWEYCDVPSCSTCGLRQYSQPQFRIKGGLFADIASHPWQAAIFAKHRRSPGERFLCGGILISSCWILSAAHCFQERFPPHHLTVILGRTYRVVPGEEEQKFEVEKYIVHKEFDDDTYDNDIALLQLKSDSSRCAQESSVVRTVCLPPADLQLPDWTECELSGYGKHEALSPFYSERLKEAHVRLYPSSRCTSQHLLNRTVTDNMLCAGDTRSGGPQANLHDACQGDSGGPLVCLNDGRMTLVGIISWGLGCGQKDVPGVYTKVTNYLDWIRDNMRP
How did the mortality turn out when B1 was run?
Its mortality is 44%.
